The values that follow are results of earlier work, collected in paper PMC2921030.

As a reminder, the Kd is the equilibrium constant for the complex coming apart.

The data set concerns the target 4E-BP1 peptide (Homo sapiens) (UniProt Q13541).
Sequence of UniProt Q13541 (Q13541 2-118): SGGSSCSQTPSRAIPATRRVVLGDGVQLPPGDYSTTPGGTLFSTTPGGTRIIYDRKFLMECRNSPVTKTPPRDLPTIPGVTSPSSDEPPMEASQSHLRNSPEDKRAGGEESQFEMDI

For the substance eIF4E (from UniProt P06730), the Kd is less than 50 nM.
